Reference: paper PMC7343985

How the values were obtained:
[1] = biological target: Human fibronectin purified from plasma (human); experiment: single-cell force spectroscopy (AFM); single bacterium on a polydopamine colloidal probe against Fn-coated gold substrates in PBS, room temperature, applied force 250 pN, approach and retraction 1,000 nm/s, contact time 100 ms
[2] = biological target: Human fibronectin purified from plasma (human); experiment: single-molecule force spectroscopy (AFM); AFM tips functionalized with Fn (EDC/NHS) against bacteria immobilised on polystyrene, PBS, room temperature, applied force 250 pN, approach and retraction 1,000 nm/s, contact time 100 ms
[3] = biological target: Human fibronectin purified from plasma (human); experiment: single-molecule force spectroscopy (AFM), dynamic force spectroscopy; Fn tips against immobilised bacteria, PBS, room temperature; retraction speeds 0.5, 1, 3, 5 and 10 um/s to vary the loading rate
[4] = biological target: SpsL_(538-823) (R domain, repetitive region of SpsL) (Staphylococcus pseudintermedius ED99); experiment: SPR; Biacore X100; SpsD520-846 or SpsL538-823 covalently immobilised on CM5 chips; 2-fold dilution series of Fn in PBS with 0.005% Tween 20, 30 ul/min, 22°C; steady-state response fitted to the Langmuir equation (one-site model)
[5] = biological target: SpsD_(520-846) (C domain, connecting region of SpsD) (Staphylococcus pseudintermedius ED99); experiment: as above

Substance “SpsL on the surface of S. pseudintermedius ED99 spsD mutant cells (natural protein)” has an adhesion force (3 cells) [1] of 168 pN, a frequency of adhesive force curves [1] of 66% and an adhesion force (3 cells) [2] of 158 pN.

“SpsD on the surface of S. pseudintermedius ED99 spsL mutant cells (natural protein)” gave a bond strength at low tensile force [3] of 0.25 nN, a bond strength under mechanical tension [3] of 2 nN and an adhesion force (cell 1) [1] of 1440 pN. For the same substance, the adhesion force (cell 2) [1] was 1750 pN, the adhesion force (cell 3) [1] was 1540 pN and the unbinding force (cell 1) [2] was 1500 pN. The unbinding force (cell 2) [2] was 1700 pN and the unbinding force (cell 3) [2] was 1820 pN.

“Human fibronectin purified from plasma (natural protein)” showed a Kd [4] of 50 nM and a Kd [5] of 1.2 nM.
